Experimental data as given in patent US20220289861A1 (ONCORESPONSE, published 2022).

Biological target: T1, His-tagged recombinant human CD163 (R&D Systems, No. 1607-CD-050) (human, UniProt Q86VB7 42-1050, limits assumed)
T1 construct: Bought protein; also called huCD163; not shown: His tag
Assay: ELISA on plate-coated recombinant human CD163 (5 ug/mL), anti-human IgG F(ab')2 HRP
Procedure: AB101 binding to His-tagged recombinant human CD163 (R&D Systems, No. 1607-CD-050) and recombinant murine CD163 (R&D Systems, No. 7435-CD-050) proteins was determined using ELISA. Recombinant proteins were diluted in PBS to 5 μg/mL and added to 384-well High binding ELISA plates (Greiner Bio-One, No. 781061) at 25 μL per well and incubated at 4° C. overnight. The plates were washed three times with PBS, using the BioTek ELx405 Select microplate washer (wash program ELISA_384_PBS_3×_wash) and then blocked with 90 μL/well of blocking buffer (2% nonfat, dry milk/PBS+0.05% Tween 20) for 1 hr at RT.
After blocking, 25 μL per well of primary antibodies were added to the plates and incubated for 1 hr at room temp. The test antibody was AB101; the control anti-huCD163 antibody was a commercially available antibody in murine IgG1 framework (R&D Systems, #MAB1607); the isotype controls were a proprietary mAb, in human IgG1, human FcNull, and murine IgG1 frameworks, with known specificity. After primary antibody binding, plates were washed three times with PBS using the EL405x (wash program ELISA_384_PBS_3×_wash). […] After development, the reaction was stopped by adding 25 μL per well of 0.3 M HCl and plates were read using the SpectraMax M5e instrument at 450 nm.

T1 sequence (Q86VB7 42-1050 limits assumed): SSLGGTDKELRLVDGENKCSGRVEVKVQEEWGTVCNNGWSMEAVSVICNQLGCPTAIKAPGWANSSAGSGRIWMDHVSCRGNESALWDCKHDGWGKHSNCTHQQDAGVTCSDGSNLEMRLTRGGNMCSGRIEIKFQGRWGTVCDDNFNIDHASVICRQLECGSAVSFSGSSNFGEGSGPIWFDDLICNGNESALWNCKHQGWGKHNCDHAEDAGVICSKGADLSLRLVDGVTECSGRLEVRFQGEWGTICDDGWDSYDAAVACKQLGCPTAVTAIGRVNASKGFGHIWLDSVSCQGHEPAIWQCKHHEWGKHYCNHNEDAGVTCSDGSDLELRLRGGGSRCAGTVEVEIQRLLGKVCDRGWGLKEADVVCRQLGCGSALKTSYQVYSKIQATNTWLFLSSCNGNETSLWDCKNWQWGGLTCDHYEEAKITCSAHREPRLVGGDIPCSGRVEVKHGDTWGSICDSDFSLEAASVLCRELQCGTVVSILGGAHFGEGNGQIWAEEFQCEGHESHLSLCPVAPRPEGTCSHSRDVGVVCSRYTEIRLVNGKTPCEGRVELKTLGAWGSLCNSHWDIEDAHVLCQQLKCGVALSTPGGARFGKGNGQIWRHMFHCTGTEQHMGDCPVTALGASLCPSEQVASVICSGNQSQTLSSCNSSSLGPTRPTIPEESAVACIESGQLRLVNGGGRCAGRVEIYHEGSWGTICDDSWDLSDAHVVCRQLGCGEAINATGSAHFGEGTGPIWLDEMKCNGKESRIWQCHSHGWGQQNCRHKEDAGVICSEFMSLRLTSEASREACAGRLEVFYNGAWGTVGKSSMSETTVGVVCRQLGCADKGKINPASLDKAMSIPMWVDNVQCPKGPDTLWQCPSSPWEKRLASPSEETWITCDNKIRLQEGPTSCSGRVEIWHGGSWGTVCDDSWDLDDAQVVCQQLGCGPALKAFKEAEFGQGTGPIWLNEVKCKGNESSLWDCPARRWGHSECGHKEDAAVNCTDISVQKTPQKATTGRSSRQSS

- EC50 (read off the curve): ~1 nM
B1: AB102 (antibody, human IgG1, kappa)
heavy: EVQLVESGGGVVQPGRSLRLSCAASGFTFSSYAMHWVRQAPGKGLEWVAVISYDGSNKYYADSVKGRFTISRDNSKNTLYLQMNSLRAEDTAVYYCARENVRPYYDFWSGYYSEYYYYGMDVWGQGTTVTVSSASTKGPSVFPLAPSSKSTSGGTAALGCLVKDYFPEPVTVSWNSGALTSGVHTFPAVLQSSGLYSLSSVVTVPSSSLGTQTYICNVNHKPSNTKVDKRVEPKSCDKTHTCPPCPAPEFEGGPSVFLFPPKPKDTLMISRTPEVTCVVVDVSHEDPEVKFNWYVDGVEVHNAKTKPREEQYNSTYRVVSVLTVLHQDWLNGKEYKCKVSNKALPASIEKTISKAKGQPREPQVYTLPPSREEMTKNQVSLTCLVKGFYPSDIAVEWESNGQPENNYKTTPPVLDSDGSFFLYSKLTVDKSRWQQGNVFSCSVMHEALHNHYTQKSLSLSPGK
light: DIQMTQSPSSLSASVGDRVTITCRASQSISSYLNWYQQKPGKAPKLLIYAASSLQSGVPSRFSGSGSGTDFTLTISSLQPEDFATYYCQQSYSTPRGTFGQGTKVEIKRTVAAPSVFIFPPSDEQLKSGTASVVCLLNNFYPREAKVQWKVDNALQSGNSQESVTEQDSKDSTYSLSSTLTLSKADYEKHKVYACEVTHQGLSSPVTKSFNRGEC
notes: Biotinylated for the PFA immunoprecipitation and AF647-conjugated for flow cytometry; also called AB101 FcNull antibody; AB101 in FcNull framework
